Test results taken from patent US20210317225A1 (Genmab, published 2021).

B1: CD40-001-FEALxCD137-011-FEAR (bispecific antibody, human IgG1, kappa)
heavy 1: EVQLQQSGPDLVKPGASVKISCKTSGYTFTEYIMHWVKQSHGKSLEWIGGIIPNNGGTSYNQKFKDKATMTVDKSSSTGYMELRSLTSEDSAVYYCTRREVYGRNYYALDYWGQGTLVTVSSASTKGPSVFPLAPSSKSTSGGTAALGCLVKDYFPEPVTVSWNSGALTSGVHTFPAVLQSSGLYSLSSVVTVPSSSLGTQTYICNVNHKPSNTKVDKRVEPKSCDKTHTCPPCPAPEFEGGPSVFLFPPKPKDTLMISRTPEVTCVVVAVSHEDPEVKFNWYVDGVEVHNAKTKPREEQYNSTYRVVSVLTVLHQDWLNGKEYKCKVSNKALPAPIEKTISKAKGQPREPQVYTLPPSREEMTKNQVSLTCLVKGFYPSDIAVEWESNGQPENNYKTTPPVLDSDGSFLLYSKLTVDKSRWQQGNVFSCSVMHEALHNHYTQKSLSLSPGK
light 1: DIQMTQTTSSLSASLGDRVTITCSASQGINNYLNWYQQKPDGTVKLLIYYTSSLHSGVPSRFSGSGSGTDYSLTISNLEPEDIATYYCQQYSNLPYTFGGGTKLEIKRTVAAPSVFIFPPSDEQLKSGTASVVCLLNNFYPREAKVQWKVDNALQSGNSQESVTEQDSKDSTYSLSSTLTLSKADYEKHKVYACEVTHQGLSSPVTKSFNRGEC
heavy 2: QSLEESGGRLVTPGTPLTLTCTVSGIDLSSYHMCWVRQAPGKGLEYIGYIAYGGNTYYANWAKGRFTISKTSTTVDLRITSPTTEDTATYFCARGYSEDSYWGLWGPGTLVTVSSASTKGPSVFPLAPSSKSTSGGTAALGCLVKDYFPEPVTVSWNSGALTSGVHTFPAVLQSSGLYSLSSVVTVPSSSLGTQTYICNVNHKPSNTKVDKRVEPKSCDKTHTCPPCPAPEFEGGPSVFLFPPKPKDTLMISRTPEVTCVVVAVSHEDPEVKFNWYVDGVEVHNAKTKPREEQYNSTYRVVSVLTVLHQDWLNGKEYKCKVSNKALPAPIEKTISKAKGQPREPQVYTLPPSREEMTKNQVSLTCLVKGFYPSDIAVEWESNGQPENNYKTTPPVLDSDGSFFLYSRLTVDKSRWQQGNVFSCSVMHEALHNHYTQKSLSLSPGK
light 2: AYDMTQTPASVEAAVGGTVTIKCQASQNIENYLAWYQQKPGQPPKLLIYDTSKLTSGVPSRFSGSGSGTDFTLTISGVQSDDAATYYCQQDYGIIFVDNIFGGGTEVVVKRTVAAPSVFIFPPSDEQLKSGTASVVCLLNNFYPREAKVQWKVDNALQSGNSQESVTEQDSKDSTYSLSSTLTLSKADYEKHKVYACEVTHQGLSSPVTKSFNRGEC
B2: CD40-001-FEALxCD137-002-FEAR (bispecific antibody, human IgG1, kappa)
heavy 1: B1 heavy 1
light 1: B1 light 1
heavy 2: QSVEESGGRLVTPGTPLTLTCTVSGFSLTYYAVTWVRQPPGKGLEWIGVIYDNGATAFATWAKGRFTMSKNSTTVALKVTSPTTEDTATYFCARSANNAWSTYSNLWGQGTLVTVSSASTKGPSVFPLAPSSKSTSGGTAALGCLVKDYFPEPVTVSWNSGALTSGVHTFPAVLQSSGLYSLSSVVTVPSSSLGTQTYICNVNHKPSNTKVDKRVEPKSCDKTHTCPPCPAPEFEGGPSVFLFPPKPKDTLMISRTPEVTCVVVAVSHEDPEVKFNWYVDGVEVHNAKTKPREEQYNSTYRVVSVLTVLHQDWLNGKEYKCKVSNKALPAPIEKTISKAKGQPREPQVYTLPPSREEMTKNQVSLTCLVKGFYPSDIAVEWESNGQPENNYKTTPPVLDSDGSFFLYSRLTVDKSRWQQGNVFSCSVMHEALHNHYTQKSLSLSPGK
light 2: DIVMTQTPSSVSAAVGGTVTINCQASEDISSYLSWYQQKLGQPPKLLIYKASTLESGVPSRFKGSGSGTEYTLTISDLESDDAATYYCQSYYSGSISGYGFVFGGGTGVVVKRTVAAPSVFIFPPSDEQLKSGTASVVCLLNNFYPREAKVQWKVDNALQSGNSQESVTEQDSKDSTYSLSSTLTLSKADYEKHKVYACEVTHQGLSSPVTKSFNRGEC
B3: CD40-001-FEALxCD137-004-FEAR (bispecific antibody, human IgG1, kappa)
heavy 1: B1 heavy 1
light 1: B1 light 1
heavy 2: QSLEESGGRLVTPGTPLTLTCTASGFSLSRYDMSWVRQAPGKGLEYIGVISSSGGTNYANWAKGRFTISKTSTTVDLKITSPTTEDTATYFCAREGDYWDFNLWGPGTLVTVSSASTKGPSVFPLAPSSKSTSGGTAALGCLVKDYFPEPVTVSWNSGALTSGVHTFPAVLQSSGLYSLSSVVTVPSSSLGTQTYICNVNHKPSNTKVDKRVEPKSCDKTHTCPPCPAPEFEGGPSVFLFPPKPKDTLMISRTPEVTCVVVAVSHEDPEVKFNWYVDGVEVHNAKTKPREEQYNSTYRVVSVLTVLHQDWLNGKEYKCKVSNKALPAPIEKTISKAKGQPREPQVYTLPPSREEMTKNQVSLTCLVKGFYPSDIAVEWESNGQPENNYKTTPPVLDSDGSFFLYSRLTVDKSRWQQGNVFSCSVMHEALHNHYTQKSLSLSPGK
light 2: AQVLTQTPSSVSAAVGGTVTINCQASQSISNLLAWYQQKPGQPPKLLIYGASTLASGVPSRFSGSGSGTEFTLTISDLESDDAATYYCAGGFPGLDTVAAFGGGTEAVVTRTVAAPSVFIFPPSDEQLKSGTASVVCLLNNFYPREAKVQWKVDNALQSGNSQESVTEQDSKDSTYSLSSTLTLSKADYEKHKVYACEVTHQGLSSPVTKSFNRGEC
B4: CD40-001-FEALxCD137-012-FEAR (bispecific antibody, human IgG1, kappa)
heavy 1: B1 heavy 1
light 1: B1 light 1
heavy 2: QSVEESGGRLVTPGTPLTLTCTVSGFSLSDYYMTWVRQAPGKGLEYIGIMSGSGSTYYASWAKGRFTISKTSSTTLELKITSPTTEDTAIYFCARDGDYAGWGYATGAFDPWGPGTLVTVSSASTKGPSVFPLAPSSKSTSGGTAALGCLVKDYFPEPVTVSWNSGALTSGVHTFPAVLQSSGLYSLSSVVTVPSSSLGTQTYICNVNHKPSNTKVDKRVEPKSCDKTHTCPPCPAPEFEGGPSVFLFPPKPKDTLMISRTPEVTCVVVAVSHEDPEVKFNWYVDGVEVHNAKTKPREEQYNSTYRVVSVLTVLHQDWLNGKEYKCKVSNKALPAPIEKTISKAKGQPREPQVYTLPPSREEMTKNQVSLTCLVKGFYPSDIAVEWESNGQPENNYKTTPPVLDSDGSFFLYSRLTVDKSRWQQGNVFSCSVMHEALHNHYTQKSLSLSPGK
light 2: AAVLTQTPSPVSAAVGGTVTISCQASQSVVGNSLLSWFQKKPGQPPKLLIYSASSLASGVPSRFKGSGSGTQFTLTISDLESDDAATYYCTGRYNSDTDTFVFGGGTEVVVKRTVAAPSVFIFPPSDEQLKSGTASVVCLLNNFYPREAKVQWKVDNALQSGNSQESVTEQDSKDSTYSLSSTLTLSKADYEKHKVYACEVTHQGLSSPVTKSFNRGEC
B5: CD40-001-FEALxCD137-003-FEAR (bispecific antibody, human IgG1, kappa)
heavy 1: B1 heavy 1
light 1: B1 light 1
heavy 2: QSVEESGGRLVTPGTPLTLTCTASGFTISSYHMIWVRQAPGEGLEWIGDIYGGTATTDYASWAKGRFTISKTSTTVDLKMTSLTTEDTATYFCARARYSGGSYANYVFNLWGQGTLVTVSSASTKGPSVFPLAPSSKSTSGGTAALGCLVKDYFPEPVTVSWNSGALTSGVHTFPAVLQSSGLYSLSSVVTVPSSSLGTQTYICNVNHKPSNTKVDKRVEPKSCDKTHTCPPCPAPEFEGGPSVFLFPPKPKDTLMISRTPEVTCVVVAVSHEDPEVKFNWYVDGVEVHNAKTKPREEQYNSTYRVVSVLTVLHQDWLNGKEYKCKVSNKALPAPIEKTISKAKGQPREPQVYTLPPSREEMTKNQVSLTCLVKGFYPSDIAVEWESNGQPENNYKTTPPVLDSDGSFFLYSRLTVDKSRWQQGNVFSCSVMHEALHNHYTQKSLSLSPGK
light 2: DIVMTQTPASVEAAVGGTVTIKCQASQSISSYLAWYQQKPGQPPKLLIYRTSTLESGVPSRFKGSGSGTEFTLTISDLESADAATYYCQGYDWSSSNRYDNTFGGGTEVVVKRTVAAPSVFIFPPSDEQLKSGTASVVCLLNNFYPREAKVQWKVDNALQSGNSQESVTEQDSKDSTYSLSSTLTLSKADYEKHKVYACEVTHQGLSSPVTKSFNRGEC

Target: Human CD137 (TNR9_Human) (human, UniProt Q07011 24-255)
Test: cell-based or functional assay

Chain of Human CD137 (TNR9_Human) (Q07011 24-255): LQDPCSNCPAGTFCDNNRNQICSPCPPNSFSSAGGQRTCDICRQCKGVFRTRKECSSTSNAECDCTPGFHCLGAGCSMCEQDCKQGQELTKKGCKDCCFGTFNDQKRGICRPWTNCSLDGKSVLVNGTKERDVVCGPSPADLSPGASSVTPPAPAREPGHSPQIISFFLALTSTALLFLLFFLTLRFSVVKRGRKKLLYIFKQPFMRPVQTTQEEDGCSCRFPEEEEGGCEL

Luciferase activity (RLU) of NF-KB/293/GFP-Luc cells transduced with CD137, incubated with K562_CD40, ~100 ng/mL:
B1
B2
B3
B4
B5

Target: Human CD40 (human, UniProt P25942 21-277)
Test: cell-based or functional assay

Chain of Human CD40 (P25942 21-277): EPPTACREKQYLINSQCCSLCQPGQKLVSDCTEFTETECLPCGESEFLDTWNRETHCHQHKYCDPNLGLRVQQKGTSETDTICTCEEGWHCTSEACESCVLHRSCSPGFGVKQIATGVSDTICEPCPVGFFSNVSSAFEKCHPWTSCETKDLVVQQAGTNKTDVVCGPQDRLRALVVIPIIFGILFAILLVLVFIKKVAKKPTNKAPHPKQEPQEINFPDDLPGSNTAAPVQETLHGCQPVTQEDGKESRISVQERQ

Luciferase activity (RLU) of NF-KB/293/GFP-Luc cells transduced with CD40, incubated with K562_CD137, ~100 ng/mL:
B1
B2
B3
B4
B5
